Measurements taken from patent publication CN115703834A (BOAOXIN BIOTECHNOLOGY NANJING CO LTD, dated 2023).

Assays:
[1] = target: T1, 人CD47 (表面过表达人CD47的293F细胞) (human, UniProt Q08722 19-323); experiment: flow cytometry on 293F cells overexpressing human CD47
T1 construct: whole, on cells; also called 表面过表达人CD47的稳定细胞系293F

[2] = target: T2, 重组人CD47-his蛋白 (ACRO biosystems, cat#CD7-H5227, MW 15.6 kDa) (human, UniProt Q08722 19-139, biotin-labelled in the ELISA assays (sites not given); unlabelled in Biacore); experiment: SPR (Biacore T200), antibody captured on goat anti-mouse IgG, CD47-his in flow
T2 construct: Bought protein; The same catalogue number is used unlabelled (SPR) and biotin-labelled (ELISAs); also called 人CD47蛋白; 生物素标记的人CD47; not shown: His tag
T2 sequence (Q08722 19-139 limits assumed): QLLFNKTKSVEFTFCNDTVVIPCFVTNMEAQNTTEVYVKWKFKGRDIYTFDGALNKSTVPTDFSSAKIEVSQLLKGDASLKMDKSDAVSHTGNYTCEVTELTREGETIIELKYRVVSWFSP

T1 sequence (Q08722 19-323): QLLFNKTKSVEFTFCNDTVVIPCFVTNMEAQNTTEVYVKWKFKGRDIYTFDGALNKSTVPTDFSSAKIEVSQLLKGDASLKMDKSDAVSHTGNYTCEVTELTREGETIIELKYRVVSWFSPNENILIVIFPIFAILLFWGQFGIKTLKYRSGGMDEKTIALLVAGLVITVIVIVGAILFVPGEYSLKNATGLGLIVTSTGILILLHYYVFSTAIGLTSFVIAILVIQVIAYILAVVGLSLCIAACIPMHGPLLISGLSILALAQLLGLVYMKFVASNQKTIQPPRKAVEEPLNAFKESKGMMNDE

- binding result [1]: binds
- binding result [2]: binds
B1: 抗人CD47单克隆抗体1A5 (antibody, V domains shown)
VH: EVQLQQSGAELVRSGASVTLSCTASGFNIKDYYMNWVKQRPEQGLEWIGWIGPENGDTENDPRFQGKATMTADTSSNTAFLQLSSLTSEDTAFYYCNAGGRGGFPYWGQGTLVTVST
VL: DILLTQTPLSLPVSLGDQASFSCRSSQNIVHINGKTYLEWYLQKPGQSPKLLIYRVSNRFSGVPDRFSGSGSGTDFTLKISRVEAEDLGVYYCFQGSHVPRTFGGGTKLEIK
notes: also called 本发明的单克隆抗体1A5; 本发明的抗体1A5
